Laboratory results from patent US20090136523A1 (published 2009).

Tests used:
peptide 121 (human) = assay: peptide microarray
peptide 69 (human) = assay: peptide microarray
peptide 125 (human) = assay: peptide microarray
peptide 13 (human) = assay: peptide microarray
peptide 16 (human) = assay: peptide microarray
[1] = biological target: T1, Purified recombinant human CD26 (rhDipeptidyl peptidase IV), R&D Systems CAT# 1180-SE (human, UniProt P27487 29-766); assay: SPR (Biacore), IgG1 over CD26
T1 construct: also called hu-CD26; soluble human CD26
Protocol: Fabs produced in E. coli as described below were diluted in PBS in a concentration of ˜0.5 μM for the assay. A typical recording included a 3 minute period of injection of the Fab followed by a period of 15 minutes of dissociation, and analysis was performed based on the raw data of the binding curves accordingly.
Analyses thereof were performed using Biacore® as described in Example 1, excepting the binding partners were the rhuMAbs noted above.

T1 sequence (P27487 29-766 limits assumed): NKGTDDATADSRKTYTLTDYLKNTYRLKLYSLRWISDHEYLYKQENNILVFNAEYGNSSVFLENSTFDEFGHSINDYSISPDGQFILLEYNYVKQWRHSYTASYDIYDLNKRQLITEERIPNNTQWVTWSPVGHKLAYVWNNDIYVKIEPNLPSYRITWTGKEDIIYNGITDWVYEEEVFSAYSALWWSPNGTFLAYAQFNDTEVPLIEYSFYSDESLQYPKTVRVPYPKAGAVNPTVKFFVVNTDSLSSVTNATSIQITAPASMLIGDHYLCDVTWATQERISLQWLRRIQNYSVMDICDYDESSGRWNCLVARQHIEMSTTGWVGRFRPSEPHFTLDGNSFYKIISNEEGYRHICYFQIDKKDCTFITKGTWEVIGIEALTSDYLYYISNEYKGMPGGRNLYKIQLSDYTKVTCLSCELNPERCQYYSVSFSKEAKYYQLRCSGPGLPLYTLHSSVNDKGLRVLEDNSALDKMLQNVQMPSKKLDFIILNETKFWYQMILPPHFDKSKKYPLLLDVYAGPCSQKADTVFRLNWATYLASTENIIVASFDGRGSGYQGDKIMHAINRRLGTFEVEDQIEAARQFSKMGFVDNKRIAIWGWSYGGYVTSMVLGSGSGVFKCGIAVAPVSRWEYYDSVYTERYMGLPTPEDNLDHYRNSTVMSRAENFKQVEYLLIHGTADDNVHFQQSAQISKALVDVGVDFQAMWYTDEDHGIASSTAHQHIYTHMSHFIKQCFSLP

- Mean Signal Value (peptide 121 (human)): 2.08
- Mean Signal Value (peptide 69 (human)): 2.45
- Mean Signal Value (peptide 125 (human)): 1.8
- Mean Signal Value (peptide 13 (human)): 1.94
- Mean Signal Value (peptide 16 (human)): 1.92
- koff [1]: 0.000108 s⁻¹
- kon [1]: 485000 M⁻¹ s⁻¹
B1: rhuMAb 411 (antibody, human IgG1, kappa, V domains shown)
VH: EVQLVESGAGVKQPGGTLRLTCTASGFSLTTYGVHWVRQAPGKGLEWVGVIWGDGRTDYDAAFMSRVTISKDTSKSTVYLQMNSLRAEDTAVYYCMRNRHDWFDYWGQGTTVTVSS
VL: DILLTQSPSSLSATPGERATITCRASQGIRNNLNWYQQKPGQAPRLLIYYSSNLQSGVPSRFSGSGSGTDFTLTISRLQPEDVAAYYCQQSIKLPFTFGSGTKVEIKR
notes: also called X411
